In patent US20250195614A1 (IMMUNITYBIO, published 2025):

Key:
[1] = target: IL2Rβ and common γ chain on 32Dβ cells; assay: cell-based or functional assay
[2] = target: TGF-β1 (UniProt P01137 279-390); assay: cell-based or functional assay
Chain of TGF-β1 (P01137 279-390 limits assumed): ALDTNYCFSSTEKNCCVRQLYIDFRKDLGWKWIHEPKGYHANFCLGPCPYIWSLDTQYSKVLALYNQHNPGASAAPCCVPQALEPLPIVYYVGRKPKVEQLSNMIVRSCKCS

Molecule	EC50 (printed as IC50), IL-15 activity on IL-15 dependent 32Dβ cells (WST-1, OD450) [1]	EC50, 32Dβ cell proliferation (WST1, absorbance 450 nM) [1]	IC50, TGF-β1 blocking activity in HEK-Blue TGF-β cells (OD620) [2]	IC50, inhibition of TGFβ1 (0.1 nM) activity in HEK-Blue TGFβ cells (QUANTI-Blue OD 620-655 nM) [2]	TGF-β1 blocking activity against that of TGFRt15-TGFRs or TGFRt15*-TGFRs (HEK-Blue TGF-β cells) [2]
recombinant IL-15 (from UniProt P40933 49-162) (ligand)	0.0818 nM	0.0106 nM	–	–	–
commercial TGF-β1 receptor II-Fc fusion (TGFRII/Fc, R&D Systems) (Fc fusion, UniProt P37173 24-159, looked up, not shown: a dimerising Fc or GST) IPPHVQKSVNNDMIVTDNNGAVKFPQLCKFCDVRFSTCDNQKSCMSNCSITSICEKPQEVCVAVWRKNDENITLETVCHDPKLPYHDFILEDAASPKCIMKEKKKPGETFFMCSCSSDECNDNIIFSEEYNTSNPD	–	–	0.47 nM	0.461 nM	~10 fold
